Substrate: CO[C@@H]1O[C@H](CO)[C@H](O)[C@@H](O)[C@H]1O
Assay: purified protein
Assay type: biochemical, Escherichia coli
Details: oxidation, 2.0 mM NAD+, 50 mM HEPES/K+, pH 8.0, 30 °C

B1: YcjQ (Escherichia coli K-12) (protein)
chain: MKKLVATAPRVAALVEYEDRAILANEVKIRVRFGAPKHGTEVVDFRAASPFIDEDFNGEWQMFTPRPADAPRGIEFGKFQLGNMVVGDIIECGSDVTDYAVGDSVCGYGPLSETVIINAVNNYKLRKMPQGSSWKNAVCYDPAQFAMSGVRDANVRVGDFVVVVGLGAIGQIAIQLAKRAGASVVIGVDPIAHRCDIARRHGADFCLNPIGTDVGKEIKTLTGKQGADVIIETSGYADALQSALRGLAYGGTISYVAFAKPFAEGFNLGREAHFNNAKIVFSRACSEPNPDYPRWSRKRIEETCWELLMNGYLNCEDLIDPVVTFANSPESYMQYVDQHPEQSIKMGVTF
Km: 12.5 ± 1.5 mM | kcat: 0.35 ± 0.03 s⁻¹ | kcat/Km: 28 ± 3 M⁻¹ s⁻¹
